Laboratory results as given in PMC7686228.

How the values were obtained:
[1] = target: parDMFase large subunit expressed and purified without the small subunit (Paracoccus sp. strain DMF); assay: SEC; large subunit purified without the small subunit; data not shown
[2] = target: parDMFase α2β2 complex (the 'dimer', 200 kDa) (Paracoccus sp. strain DMF); assay: cryo-EM structure; purified parDMFase on ice; data set with 200 mM NaCl, tetramer (α2β2)2 reconstruction at 2.8 Å (initial mixed data set: 3.8 Å); step: dimer of α2β2 dimers

stoichiometry N [1]	stoichiometry N [2]	Substance
2		parDMFase large subunit expressed and purified without the small subunit (enzyme)
	2	parDMFase α2β2 complex (the 'dimer', 200 kDa)
